Consider 1 protein from paper PMC3718800, “Structural and Functional Perturbation of Giardia lamblia Triosephosphate Isomerase by Modification of a Non-Catalytic, Non-Conserved Region” (PLoS ONE, 2013).

Substrate in this data set: O=C[C@H](O)COP(=O)(O)O
Kind of data set: Coupled alpha-glycerol-3-phosphate dehydrogenase assay following NADH decrease at 340 nm at 25°C in 100 mM triethanolamine/10 mM EDTA, pH 7.4, with 0.2 mM NADH and GAP varied from 0.3 to 3 mM, fitted to the Michaelis-Menten equation by non-linear regression. The data set is classed as biochemical. The method, then: Glyceraldehyde 3-phosphate (GAP), buffers, salts and all the other analytical grade reagents were acquired from Sigma–Aldrich; α-glycerol-3-phosphate dehydrogenase (α-GDH) was from Roche, crystallization screen kits were obtained from Hampton Research. Restriction enzymes, DNA polymerase and T4 DNA ligase were purchased from New England BioLabs and Invitrogene. Oligonucleotide synthesis and DNA sequencing was performed at the Unidad de Biología Molecular, Instituto de Fisiología Celular, UNAM. Protein concentration was determined by the bicinchoninic acid method or by absorbance at 280 nm for pure GlTIM (ε280 = 26600 M^-1cm^-1). The TIM activity was determined at 25°C by a coupled assay, following the decrease in absorbance at 340 nm. The standard reaction mixture contained 100 mM triethanolamine/10 mM EDTA, pH 7.4 (TE buffer), 1 mM GAP, 0.2 mM NADH, and 0.9 units of α-GDH (20 μg/mL); the reaction was initiated by addition of 5 ng/mL of WT, C222V or C222M GlTIM, 10 ng/mL of C222N, 20 ng/mL of C222D or C222F, and 200 ng/mL of C222K. Kinetic, binding and stability data were analyzed by non-linear regression calculations with Origin software.
Determination of Km and Vmax was performed by fitting initial velocity data at GAP concentrations ranging from 0.3 to 3 mM to the Michaelis-Menten equation (v = Vmax•S/Km+S) by non-linear regression calculations. The kcat was derived from Vmax by considering a molecular mass for the monomer of 27.7 kDa. The Ki for 2-phosphoglycolate (2-PG) was calculated by global fit of initial velocity curves (GAP from 0.3 to 3 mM) obtained at different fixed concentrations of the inhibitor. Prior to fitting collectively the data to the simple competitive inhibition equation (v = Vmax•S/Km(1+I/Ki)+S), individual data were plotted as double reciprocal plots to confirm competitive inhibition.

B1: GlTIM (Giardia duodenalis) (protein)
chain: MPARRPFIGGNFKCNGSLDFIKSHVAAIAAHKIPDSVDVVIAPSAVHLSTAIAANTSKQLRIAAQNVYLEGNGAWTGETSVEMLQDMGLKHVIVGHSERRRIMGETDEQSAKKAKRALEKGMTVIFCVGETLDERKANRTMEVNIAQLEALGKELGESKMLWKEVVIAYEPVWSIGTGVVATPEQAEEVHVGLRKWFAEKVCAEGAQHIRIIYGGSANGSNCEKLGQCPNIDGFLVGGASLKPEFMTMIDILTKTRT
What is called Km is the substrate concentration at which the rate is half of its maximum. One may read the Vmax as the rate approached at saturating substrate. What is called kcat is the maximal rate divided by the concentration of active sites. B1: the Km turned out to be 0.62 ± 0.22 mM, the maximal velocity (Vmax) is 8050 µmol/min/mg and the kcat was 7330 s⁻¹.
